The source of these data is patent US20130209355A1 (Genmab, published 2013).

One assay addresses Human recombinant CD38 (human, UniProt P28907 43-300, limits assumed). Put plainly: cell-based or functional assay.
Assay [1] concerns the target T1, human CD38 on CD38-transfected CHO cells (CHO-CD38 cells) (human, UniProt P28907 1-300).
T1 construct: The construct used to transfect the CHO cells is not described; also called CHO cells transfected with CD38; cellular expressed CD38
Put plainly: flow cytometry on CHO-CD38 cells, anti-human IgG-FITC.

For another assay, the target named is T2, CD38 on Daudi-luc cells (UniProt P28907 1-300).
T2 construct: whole, on cells; also called Daudi cells
Put plainly: flow cytometry on Daudi-luc cells, anti-human IgG-FITC.

In assay [2] the target is T3, HA-CD38 (N-terminal HA tag, extracellular domain of human CD38), wild type (human, UniProt P28907 45-300).
T3 construct: Used as culture supernatant of HEK-293F cells, captured by anti-HA antibody; also called wild type (WT) CD38; pEE13.4HACD38
Put plainly: ELISA, HA-CD38 captured by anti-HA antibody. For orientation: In an ELISA, binding on a coated surface is turned into a signal by an enzyme label.

Substitutions are numbered along the chain they refer to.

Regarding HuMab-KLH (antibody), the pmol cADPR/min (reverse cyclase reaction) (pmol cADPR/min) with Human recombinant CD38 was determined as 4.3.

B1: anti-CD38 antibody 025 (antibody, human IgG1, V domains shown)
VH: QVQLVQSGAEVKKPGSSVKVSCKAFGGTFSSYAISWVRQAPGQGLEWMGRIIRFLGKANHAQKFQGRVTLTADKSTNTAYMELSSLRSEDTAVYYCAGEPGDRDPDAVDIWGQGTMVTVSS
VL: DIQMTQSPSSLSASVGDRVTITCRASQGIRSWLAWYQQKPEKAPKSLIYAASSLQSGVPSRFSGSGSGTDFTLTISSLQPEDFATYYCQQYNSYPLTFGGGTKVEIK
Take B1: the binding result (in assay [1]; with CD38 on Daudi-luc cells; in assay [2]) was “binds” throughout.

B2: anti-CD38 antibody 026 (antibody, human IgG1, V domains shown)
VH: B1 VH with A58T
VL: B1 VL
notes: also called -057
On to B2, for which the binding result (in assay [1]; with CD38 on Daudi-luc cells; in assay [2]) was “binds” in each case.

B3: anti-CD38 antibody 049 (antibody, human IgG1, V domains shown)
VH: B1 VH with K12M, F25S, S30R, R53V, A58T, H60Y, N77T, A97T, D102A, V108F
VL: B1 VL with S93N
In the case of B3, the binding result (in assay [1]; with CD38 on Daudi-luc cells; in assay [2]) was “binds” in each case.

B4: anti-CD38 antibody 028 (antibody, human IgG1, V domains shown)
VH: B1 VH with K57I, H60Y, T71I, D102E
VL: B1 VL
Turning to B4, the “IC50 of inhibition of NAADP production (base-exchange activity, HPLC)” value with Human recombinant CD38 was found to be 0.14 µg/mL.

B5: anti-CD38 antibody 056 (antibody, human IgG1, V domains shown)
VH: QVQLVQSGAEVKKPGSSVKVSCKPSGGTFRSYAISWVRQAPGQGLEWMGRIIVFLGKVNYAQRFQGRVTLTADKSTTTAYMELSSLRSEDTAVYYCTGEPGARDPDAFDIWGQGTMVTVSS
VL: B1 VL with S93N
Consider B5, for which the binding result (in assay [1]; in the assay with CD38 on Daudi-luc cells) was “binds” each time.
